Source: article PMC2782360

Assays:
[1] = molecular target: recombinant human 37 kDa laminin receptor precursor (37LRP) (human) (UniProt P08865); assay: SPR
[2] = molecular target: native 67 kDa laminin receptor (67LR) shed from T47D cells (human (endogenous in T47D)) (UniProt P08865); assay: SPR

- Kd [1]: 0.41 µM
- Kd [2]: 0.32 µM
Substance: human laminin (complex)
